Non-standard residues stand in square brackets, D forms with d. Primed or numbered codes have the meaning given here. No end group written: not given here. Me2a″ = asymmetric dimethylarginine (Rme2a); Arg(Me2a) = CN(C)C(=N)NCCC[C@H](N)C(=O)O; Lys(Me3) = C[N+](C)(C)CCCC[C@H](N)C(=O)O; Arg(Me2s) = CN=C(NC)NCCC[C@H](N)C(=O)O; pT = C[C@@H](OP(=O)(O)O)[C@H](N)C(=O)O; Lys(Me2) = CN(C)CCCC[C@H](N)C(=O)O; Me2s = symmetric dimethyl (on Arg); pS = N[C@@H](COP(=O)(O)O)C(=O)O; Lys(Me) = CNCCCC[C@H](N)C(=O)O; Me3 = trimethyl (on Lys)

To fix the notation:
T1: Bdf1 bromodomain 2 (GST-tagged, WT) (Saccharomyces cerevisiae (strain ATCC …, UniProt P35817))
T1 chain: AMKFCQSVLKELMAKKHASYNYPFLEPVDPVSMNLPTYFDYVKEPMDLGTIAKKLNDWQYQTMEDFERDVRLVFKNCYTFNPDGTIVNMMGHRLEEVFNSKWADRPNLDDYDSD

T2: Bdf1 bromodomain 1 (GST-tagged, WT) (Saccharomyces cerevisiae (strain ATCC …, UniProt P35817))
T2 chain: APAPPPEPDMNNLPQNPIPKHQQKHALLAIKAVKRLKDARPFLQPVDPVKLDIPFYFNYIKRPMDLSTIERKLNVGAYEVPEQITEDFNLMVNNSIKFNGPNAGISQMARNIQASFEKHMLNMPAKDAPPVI

B1: H2B 1-19 (peptide)
chain: PDPAK(Ac)SAPAPKK(Ac)GSKKAVT
B2: H3 1-19 (peptide)
chain: ARTKQTARKSTGGK(Ac)APRKQ
B3: H3 1-19 (peptide)
chain: A[Arg(Me2s)]TK(Ac)QTARKSTGGKAPRKQ
B4: H3 1-19 (peptide)
chain: AR(Me2a″)TK(Ac)QTAR(Me2a″)K(Ac)STGGKAPRKQ
B5: H3 1-19 (peptide)
chain: ARTKQTARKSTGGKAPRKQ
modifications: A Rme2s T Kac Q T A Rme2s Kme3 S T G G K A P R K Q
B6: H4 1-19 (peptide)
chain: SGRGKGGKGLGKGGAKRHR
modifications: S G R G K G G Kac G L G Kac G G A K R H R
B7: H4 1-19 (peptide)
chain: SGRGKGGKGLGKGGAKRHR
modifications: S G R G K G G Kac G L G K G G A Kac R H R
B8: H3 1-19 (peptide)
chain: ARTKQTA[Arg(Me2s)][Lys(Me2)]S[pT]GGKAPRKQ
B9: H3 1-19 (peptide)
chain: AR[pT]K(Ac)QTARKSTGGKAPRKQ
B10: H3 1-19 (peptide)
chain: ARTKQTARKSTGGKAPRKQ
modifications: A Rme2s T Kme1 Q T A Rme2s Kme3 S T G G K A P R K Q
B11: H2a 1-19 (peptide)
chain: SGRGKQGGKARAKAKSRSS
modifications: histone peptides carry modifications given inline in the sequence and in columns 4-7 (Kac, Kme1/2/3, Rme2a/s, Cit, pS/pT); N-terminus free or acetylated
B12: H3 1-19 (peptide)
chain: A[Arg(Me2a)]TKQTARKSTGGKAPRKQ
B13: H3 1-19 (peptide)
chain: ARTKQTARKSTGGKAPRKQ
modifications: A Rme2a T Kme1 Q T A R Kme2 S T G G K A P R K Q
B14: H3 1-19 (peptide)
chain: ARTKQTARKSTGGKAPRKQ
modifications: A Rme2s T Kme2 Q T A Rme2a Kme1 S T G G K A P R K Q
B15: H3 1-19 (peptide)
chain: A[Arg(Me2a)]T[Lys(Me3)]QTA[Arg(Me2s)][Lys(Me)]STGGKAPRKQ
B16: H3 1-19 (peptide)
chain: ARTKQTARKSTGGKAPRKQ
modifications: A R T K Q T A R Kme2 pS T G G K A P R K Q
B17: H3 1-19 (peptide)
chain: ART[Lys(Me3)]QTA[Arg(Me2s)][Lys(Me2)]STGGKAPRKQ
B18: H2B 1-19 (peptide)
chain: PDPAK(Ac)SAPAPKKG[pS]KKAVT
B19: H2B 1-19 (peptide)
chain: PDPAKSAPAPKKGSKKAVT
modifications: not fully specified
B20: H3 1-19 (peptide)
chain: ARTKQTA[Arg(Me2s)]K(Me)S[pT]GGKAPRKQ
B21: H4 1-19 (peptide)
chain: SGRGKGGKGLGKGGAKRHR
modifications: S G Rme2s G Kac G G Kac G L G K G G A K R H R
B22: H3 1-19 (peptide)
chain: ARTKQTARKSTGGKAPRKQ
modifications: A Rme2a T Kme3 Q T A Rme2a Kme1 S T G G K A P R K Q
B23: H3 1-19 (peptide)
chain: AR(Me2s)TK(Ac)QTAR(Me2s)K(Me)STGGKAPRKQ
B24: H4 1-19 (peptide)
chain: SGRGKGGKGLGKGGAKRHR
modifications: S G Rme2a G Kac G G K G L G K G G A K R H R
B25: H3 1-19 (peptide)
chain: ARTKQTARKSTGGKAPRKQ
modifications: A R T K Q T A R Kac S T G G Kac A P R K Q
B26: H3 1-19 (peptide)
chain: ARTKQTA[Arg(Me2a)]K(Ac)[pS][pT]GGKAPRKQ
B27: H3 16-35 (peptide)
chain: PRKQLATKAA[Arg(Me2a)]K[pS]APATGG
B28: H3 1-19 (peptide)
chain: ARTKQTA[Arg(Me2s)][Lys(Me2)][pS]TGGKAPRKQ
B29: H3 1-19 (peptide)
chain: ARTKQTARKSTGGKAPRKQ
modifications: A R T Kme2 Q T A Rme2s Kac S T G G K A P R K Q
B30: H3 16-35 (peptide)
chain: PRKQLATKAAR[Lys(Me3)][pS]APATGG
B31: H3 1-19 (peptide)
chain: ARTKQTARKSTGGKAPRKQ
modifications: A R T K Q T A Rme2s Kme3 pS T G G K A P R K Q
B32: H3 1-19 (peptide)
chain: A[Arg(Me2a)][pT][Lys(Me2)]QTARKSTGGKAPRKQ
B33: H3 1-19 (peptide)
chain: A[Arg(Me2s)]T[Lys(Me2)]QTAR[Lys(Me3)]STGGKAPRKQ
B34: H2a 1-19 (peptide)
chain: SGRGKQGGK(Ac)ARAK(Ac)AKSRSS
B35: H3 1-19 (peptide)
chain: ARTKQTARKSTGGKAPRKQ
modifications: A Rme2a T Kme2 Q T A R Kme2 S T G G K A P R K Q
B36: H3 1-19 (peptide)
chain: ARTKQTARKSTGGKAPRKQ
modifications: A Rme2s T Kac Q T A Rme2s Kac S T G G K A P R K Q
B37: H4 1-19 (peptide)
chain: SGRGKGGKGLGKGGAKRHR
modifications: pS G R G Kac G G K G L G K G G A K R H R
B38: H4 1-19 (peptide)
chain: SGRGKGGKGLGKGGAKRHR
modifications: S G Rme2a G Kac G G Kac G L G Kac G G A K R H R
B39: H3 16-35 (peptide)
chain: PRKQLATKAARK[pS]APATGG
B40: H2a 1-19 (peptide)
chain: [pS]GRGK(Ac)QGGKARAK(Ac)AKSRSS
B41: H3 1-19 (peptide)
chain: ARTK(Me3)QTAR(Me2s)K(Ac)STGGKAPRKQ
B42: H3 1-19 (peptide)
chain: ARTKQTARKSTGGKAPRKQ
modifications: A Rme2s T Kme3 Q T A Rme2s Kac S T G G K A P R K Q
B43: H3 1-19 (peptide)
chain: ARTKQTARKSTGGKAPRKQ
modifications: A Rme2a T Kac Q T A Rme2s Kac S T G G K A P R K Q
B44: H3 1-19 (peptide)
chain: ARTKQTARKSTGGKAPRKQ
modifications: A Rme2a T Kme1 Q T A Rme2a Kac S T G G K A P R K Q

In the first experiment the target is T1, Bdf1 bromodomain 2 (GST-tagged, WT). The experiment can be described thus: histone peptide array probed with recombinant GST-bromodomain, signal normalised to myc peptide control.
With B1, the binding score amounted to 0.0186.

On to B2, for which the binding score is 0.0733.

Take B3: the binding score worked out at 0.00482.

On to B4, for which the binding score was determined as 0.0867.

As for B5, the binding score was 0.00521.

B6: the binding score was determined as 0.258.

Turning to B7, the binding score was 0.161.

On to B8, for which the binding score came to 0.00915.

On to B9, for which the binding score was 0.0271.

For B10, the binding score was found to be 0.

Consider B11, for which the binding score came out at 0.0141.

Take B12: the binding score is 0.00462.

For the molecule B13, the binding score stood at 0.0062.

With B14, the binding score came to 0.

Take B15: the binding score was 0.

For the molecule B16, the binding score worked out at 0.

On to B17, for which the binding score worked out at 0.00561.

In the case of B18, the binding score came out at 0.

B19: the binding score stood at 0.00266.

Regarding B20, the binding score is 0.00836.

As for B21, the binding score was found to be 0.275.

Turning to B22, the binding score worked out at 0.

With B23, the binding score was determined as 0.00561.

For B24, the binding score was 0.0707.

B25: the binding score was found to be 0.209.

Consider B26, for which the binding score was 0.

For the molecule B27, the binding score worked out at 0.

For B28, the binding score turned out to be 0.00541.

For the molecule B29, the binding score stood at 0.0564.

Take B30: the binding score is 0.

In the case of B31, the binding score came to 0.00148.

For the molecule B32, the binding score worked out at 0.00246.

B33: the binding score came out at 0.

On to B34, for which the binding score came to 0.117.

As for B35, the binding score is 0.

Regarding B36, the binding score is 0.131.

Turning to B37, the binding score is 0.069.

For the molecule B38, the binding score is 0.386.

B39: the binding score was determined as 0.

With B40, the binding score came to 0.231.

Turning to B41, the binding score was determined as 0.0363.

With B42, the binding score turned out to be 0.0385.

As to B43, the binding score worked out at 0.0869.

Regarding B44, the binding score was 0.00325.

In another experiment the target is T2, Bdf1 bromodomain 1 (GST-tagged, WT). The experiment is described as above.
Take B1: the binding score is 0.

For the molecule B2, the binding score was 0.00108.

With B3, the binding score was found to be 0.0172.

Consider B4, for which the binding score was 0.0387.

For the molecule B5, the binding score came to 0.00538.

Regarding B6, the binding score was 0.18.

Take B7: the binding score came out at 0.0534.

Regarding B8, the binding score was 0.0052.

As to B9, the binding score is 0.0321.

Turning to B10, the binding score was 0.00161.

As for B11, the binding score amounted to 0.

As for B12, the binding score amounted to 0.0095.

Take B13: the binding score stood at 0.00538.

With B14, the binding score was 0.

Consider B15, for which the binding score is 0.

Regarding B16, the binding score worked out at 0.00108.

For the molecule B17, the binding score was found to be 0.00628.

As for B18, the binding score came out at 0.00412.

On to B19, for which the binding score is 0.

As for B20, the binding score was 0.

On to B21, for which the binding score amounted to 0.123.

As to B22, the binding score is 0.

As for B23, the binding score stood at 0.00161.

For the molecule B24, the binding score was determined as 0.

On to B25, for which the binding score came out at 0.108.

As to B26, the binding score was found to be 0.00663.

As for B27, the binding score was found to be 0.

For B28, the binding score is 0.000179.

Consider B29, for which the binding score amounted to 0.0301.

Consider B30, for which the binding score turned out to be 0.

For the molecule B31, the binding score is 0.00305.

Take B32: the binding score came out at 0.

For the molecule B33, the binding score amounted to 0.

As to B34, the binding score is 0.0104.

In the case of B35, the binding score amounted to 0.

Consider B36, for which the binding score worked out at 0.0405.

Consider B37, for which the binding score was determined as 0.00108.

On to B38, for which the binding score came out at 0.29.

Consider B39, for which the binding score was 0.

Regarding B40, the binding score amounted to 0.

On to B41, for which the binding score worked out at 0.0484.

Consider B42, for which the binding score was determined as 0.0104.

For B43, the binding score is 0.0518.

Consider B44, for which the binding score was determined as 0.0124.

Values taken from article PMC5261807 (2017).
